{
  "source": "patent US20180002381A1",
  "about": "(HONG KONG POLYTECHNIC UNIVERSITY, published 2018)",
  "binders": {"B1": {"name": "UVRAG (228-298) (other)", "chain": "TSNELKKESESLRLKILVLRNELERQKKALGREVAFLHKQQMALQDKGSAFSTEHGKLQLQKDSLSELRKE"}, "B2": {"name": "UVRAG 5E (L232E/L239E/L246E/L250E/L264E), coiled coil domain as used in ITC (other)", "chain": "B1 chain with L5E, S11C, L12E, L19E, L23E, L37E"}, "B3": {"name": "UVRAG 6E (L232E/L239E/L246E/L250E/L264E/L271E), coiled coil domain as used in ITC (other)", "chain": "B1 chain with L5E, S11C, L12E, L19E, L23E, L37E, L44E"}, "B4": {"name": "UVRAG 2E (L246E/L250E), coiled coil domain as used in ITC (other)", "chain": "B1 chain with S11C, L19E, L23E"}, "B5": {"name": "FLAG-tagged full length Mus musculus UVRAG wild type (other, not shown: small tags and cut ends)", "chain": "MSSCASLGGPVPLPPPGPSAALTSGAPARALHVELPSQQRRLRHLRNIAARNIVNRNGHQLLDTYFTLHLCDNEKIFKEFYRSEVIKNSLNPTWRSLDFGIMPDRLDTSVSCFVVKIWGGKEEAFQLLIEWKVYLDGLKYLGQQIHARNQNEIIFGLNDGYYGAPCEHKGHPNAQKNLLQVDQNCVRNSYDVFSLLRLHRAQCAIKQTQVTVQRLGKEIEEKLRLTSTSNELKKESECLRLKILVLRNELERQKKALGREVAFLHKQQMALQDKGSAFSTEHGKLQLQKDSLSELRKECTAKRELFLKTNAQLTIRCRQLLSELSYIYPIDLNEHKDYFVCGVKLPNSEDFQAKEDGSIAVALGYTAHLVSMISFFLQVPLRYPIIHKGSRSTIKDNINDKLTEKEREFPLYPKGGEKLQFDYGVYLLNKNIAQLRYQHGLGTPDLRQTLPNLKNFMEHGLMVRCDRHHISNAIPVPKRQSSTFGGADGGFSAGIPSPDKVHRKRASSENERLQYKTPPPSYNSALTQPGVAMPTSGDSERKVAPLSSSLDTSLDFSKENKKAGVDLGSSVSGDHGNSDSGQEQGEALPGHLAAVNGTALPSEQAGPAGTLLPGSCHPAPSAELCCAVEQAEEIIGLEATGFTSGDQLEALSCIPVDSAVAVECDEQVLGEFEEFSRRIYALSENVSSFRRPRRSSDK"}, "B6": {"name": "FLAG-tagged full length Mus musculus UVRAG 1E (L246E) (other, not shown: small tags and cut ends)", "chain": "B5 chain with L246E"}, "B7": {"name": "FLAG-tagged full length Mus musculus UVRAG 2E (L246E/L250E) (other, not shown: small tags and cut ends)", "chain": "B5 chain with L246E, L250E"}, "B8": {"name": "Coiled coil domain of UVRAG (228-276) (other)", "chain": "TSNELKKESESLRLKILVLRNELERQKKALGREVAFLHKQQMALQDKG", "notes": "They have S at position 238 where the full-length entries have C; also called UVRAG coiled coil domain; UVRAG coiled coil"}, "B9": {"name": "Monomeric form of Beclin1 coiled coil domain with L182A mutation (other)", "chain": "DSEQLQREAKELALEEERLIQELEDVEKNRKVVAENLEKVQAEAERLDQEEAQYQREYSEFKRQQLELDDELKSVENQMRYAQMQLDKLKKTN", "notes": "The entry already carries L182A"}, "B10": {"name": "Beclin 1 coiled coil 4 (CC4) (other)", "chain": "AERLDQEEAQYQREYSEFKRQQLELDDELKSVENQMRYAQMQADKLKKTN", "notes": "7 heptad repeats of the Beclin1 coiled coil domain"}, "B11": {"name": "Beclin 1 coiled coil 2 (CC2) (other)", "chain": "EERLIQELEDVEKNRKVVAENLEKVQAEAERLDQEEAQYQREYSEFKRQ", "notes": "as for B10"}, "B12": {"name": "Beclin 1 coiled coil 3 (CC3) (other)", "chain": "RKVVAENLEKVQAEAERLDQEEAQYQREYSEFKRQQLELDDELKSVENQ", "notes": "as for B10"}},
  "key": {"[1]": {"molecular_target": "B9", "assay": "ITC"}, "[2]": {"molecular_target": "T1, Beclin1 coiled coil domain (wild type) (rat, UniProt Q91XJ1 174-266)", "T1 construct": "residues 175-266; it pairs 1:1 with UVRAG; also called CC; entire Beclin1 coiled coil domain", "assay": "isothermal titration calorimetry, wild type Beclin1 coiled coil domain and UVRAG (228-298)"}, "[3]": {"molecular_target": "T1, Beclin1 coiled coil domain (wild type)", "assay": "ITC"}, "[4]": {"molecular_target": "B8", "assay": "isothermal titration calorimetry, Beclin 1 construct against UVRAG coiled coil domain"}, "endogenous Beclin1": {"molecular_target": "endogenous Beclin1 (UniProt Q14457 1-450)", "sequence (Q14457 whole entry)": "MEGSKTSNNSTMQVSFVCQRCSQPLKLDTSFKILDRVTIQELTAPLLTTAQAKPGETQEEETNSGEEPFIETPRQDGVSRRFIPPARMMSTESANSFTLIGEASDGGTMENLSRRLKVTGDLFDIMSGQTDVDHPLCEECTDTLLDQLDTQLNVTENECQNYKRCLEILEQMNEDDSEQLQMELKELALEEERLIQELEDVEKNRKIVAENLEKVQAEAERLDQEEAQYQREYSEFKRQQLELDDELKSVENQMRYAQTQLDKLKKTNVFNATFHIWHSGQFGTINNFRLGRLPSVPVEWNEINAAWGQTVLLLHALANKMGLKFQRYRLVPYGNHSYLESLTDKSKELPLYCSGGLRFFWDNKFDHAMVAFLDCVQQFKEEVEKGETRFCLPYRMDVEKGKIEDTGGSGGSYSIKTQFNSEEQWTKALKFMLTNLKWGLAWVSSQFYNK", "assay": "cell-based or functional assay"}, "[5]": {"molecular_target": "T1, Beclin1 coiled coil domain (wild type)", "assay": "ITC", "remark": "listed apart in the source"}, "UVRAG (228-298)": {"molecular_target": "B1", "assay": "isothermal titration calorimetry, monomeric Beclin1 coiled coil domain (L182A) and UVRAG (228-298)"}},
  "note": "Changes are numbered by the printed parent chain. In names and notes the source's numbering stands. No end group written: not given here.",
  "data": [
    {"binder": "B1", "values": [
      {"measurement": "binding result", "setting": "[1]", "value": "binds"},
      {"measurement": "Kd", "setting": "[2]", "value": "~0.24", "unit": "µM"}
    ]},
    {"binder": "B2", "values": [
      {"measurement": "binding result", "setting": "[3]", "value": "no binding"}
    ]},
    {"binder": "B3", "values": [
      {"measurement": "binding result", "setting": "[3]", "value": "no binding"}
    ]},
    {"binder": "B4", "values": [
      {"measurement": "binding result", "setting": "[3]", "value": "no binding"}
    ]},
    {"binder": "DSEQAQRELKELALEEERLIQELEDVEKNRKVVAENLEKVQAEAERLDQE (other, not fully specified)", "note": "[Beclin 1 coiled coil 1 (CC1), residues 174-223]", "values": [
      {"measurement": "Kd", "setting": "[4]", "value": 8.9, "unit": "µM"}
    ]},
    {"binder": "B5", "values": [
      {"measurement": "EGFR remaining after 5 hours in A549 cells", "setting": "endogenous Beclin1", "value": "< 10", "unit": "%"},
      {"measurement": "half-life of EGFR in A549 cells", "setting": "endogenous Beclin1", "value": "~2", "unit": "h"}
    ]},
    {"binder": "B6", "values": [
      {"measurement": "EGFR remaining after 5 hours in A549 cells", "setting": "endogenous Beclin1", "value": "< 10", "unit": "%"},
      {"measurement": "half-life of EGFR in A549 cells", "setting": "endogenous Beclin1", "value": "~2", "unit": "h"}
    ]},
    {"binder": "B7", "values": [
      {"measurement": "EGFR remaining after 5 hours in A549 cells", "setting": "endogenous Beclin1", "value": "~5", "unit": "%"}
    ]},
    {"binder": "B8", "values": [
      {"measurement": "Kd", "setting": "[5]", "value": "~0.24", "unit": "µM"}
    ]},
    {"binder": "B9", "values": [
      {"measurement": "Kd", "setting": "UVRAG (228-298)", "value": "~0.07", "unit": "µM"}
    ]},
    {"binder": "B10", "values": [
      {"measurement": "Kd", "setting": "[4]", "value": 157, "unit": "µM"}
    ]},
    {"binder": "B11", "values": [
      {"measurement": "Kd", "setting": "[4]", "value": 139, "unit": "µM"}
    ]},
    {"binder": "B12", "values": [
      {"measurement": "Kd", "setting": "[4]", "value": 671, "unit": "µM"}
    ]}
  ]
}
